Results: publication PMC6470172, “Conformational plasticity in the KcsA potassium channel pore helix revealed by homo-FRET studies” (Scientific Reports, 2019)
Positions count from the first letter of the chain named. Names may count otherwise.

B1: KcsA W26,68,87,113F quadruple mutant channel (W67 KcsA) (natural protein, S. lividans, UniProt P0A334 1-160, looked up)
chain: MPPMLSGLLARLVKLLLGRHGSALHFRAAGAATVLLVIVLLAGSYLAVLAERGAPGAQLITYPRALWFSVETATTVGYGDLYPVTLFGRLVAVVVMVAGITSFGLVTAALATFFVGREQERRGHFVRHSEKAAEEAYTRTTRALHERFDRLERMLDDNRR
notes: KcsA potassium channel cloned from S. lividans; single Trp (W67) left per subunit; called full-length in the discussion; Homotetramer; also called KcsA W67
B2: KcsA W26,68,87,113F E71A mutant channel (W67 E71A KcsA) (natural protein, S. lividans, UniProt P0A334 1-160, looked up)
chain: B1 chain with E71A
notes: KcsA potassium channel cloned from S. lividans; also called E71A W67 KcsA; E71A W67

Experiments:
[1] = molecular target: the molecule itself; assay: SDS-PAGE of the tetramer; 13.5% SDS-PAGE of the detergent-solubilised protein; 20 mM Hepes pH 7 or 10 mM succinic acid pH 4, 5 mM DDM, 200 mM Cs+, Rb+, K+ or Na+, or TBA+
[2] = molecular target: the molecule itself; assay: FRET or BRET; homo-FRET between the W67 residues of the subunits, read by steady-state and time-resolved fluorescence anisotropy; 6 uM protein (monomer based), 5 mM DDM, pH 7 or pH 4, saturating monovalent cations or TBA+, room temperature

Protein | stoichiometry N [1] | binding result [2]
B1 | 4 | 
B2 |  | binds
